The domain aggregation screens of Martell et al. (2025)

Assay: soluble fraction after stress (log2 fold change); higher = more stays soluble; pooled small domains, quantitative proteomics
Conditions: stress: 75 degC
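Also: 20 min heating vs room temperature control held 20 min.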

First: HMGEELIEIQNLRNKERREAEAILKNLDLVPVIQEQFDDTVPINRVITTDPGPDSTVKKGTTVMIYVSKGP
Second: HMGEENLKYPLLTDGSVKTTVLEAIDKDEKWLREELAKQGYDDLSKLFLVDYLGGQLVVTPY
The “soluble fraction (log2)” value of the first is higher: 0.415 for the first, 0.144 for the second.

Compared with “HMGEESIAELISNPKLSDAKRTVILDLLSRGLTVDQIKPYIQSDDPYTAEQLQFELYKLFFTQI”, “HMGEGRVRLAQEAANRFMTAMAGDRPGFEEAGRALFAGDRARFHAETEGWPEDIRDHARRLAEPALQ” is higher in “soluble fraction (log2)” value: -0.578 for the first, 0.144 for the second.

Compared with “HMGEIILVPDVKAQGVSDARYTLNQAGLDAVIADSSYNRNSPPGAVLEQMPAPGSKVKSGHAIYLIINTT”, “HMGELTSILVATKQIEPGETLSSSNTQVKSWISDLIPEGAITNPESVMGRTVSSVIGVGMPVVSLHLR” is higher in “soluble fraction (log2)” value: 0.138 for the first, 0.462 for the second.

Compared with “HMGELVIPPLRERTVVDAVAEAERLGFVVQVEPVASSLPEGRVLGQSPEPGTRARKSQVVVLQVSRG”, “HMGEPLTVVAAAGGDRLDRWLAGQLAGRSRAEIQRWIEAGQVTLAGRSLKASYRLSAGDAIDVAIPPPE” is higher in “soluble fraction (log2)” value: -0.614 for the first, -0.366 for the second.

Going from “HMGEPVEIEEPITVRSLSEALGLKSSAIISHLMRQGVFATINQNLDKETAELIAAEYGIELRIK” to “HMGETDDDFRELEEFVEKTKFDKLGTFMYSKEEGTPAARLPEQIHGNTKKSRYNKIMSIQQKVSNEN”, the “soluble fraction (log2)” value rises from -0.0834 to 0.253.

“HMGETPEILRDWEAAQNAVNDMLSKYAPGGYMGKIIYPLLTPLKERLEAGERTPDLYNAIVEAT” and “HMGETYTIPDVRGYTLEDAMELPEIKENGFTIIEGRQIVDADVPVGQIISQTPEAESIAKSNVKEITVNIS” are within 0.2 log units of each other in “soluble fraction (log2)” value: 0.119 for the first, 0.239 for the second.

“HMGEVPVETKDGIKVHVHTVDKSQTAYGISRLYNITLNELYESNPEAKLELSIGQKLYFPVK” and “HMGEVVRAPMPGNVLKMEVAQGQEVEEGDLLLVLEAMKMENDIVAPKGGIVIQLVVDKGMVVETDDPLVVI” are within 0.2 log units of each other in “soluble fraction (log2)” value: -0.199 for the first, -0.339 for the second.

Going from “HMGEWNSVFSVPSSVVDKHLKTASSVYVKVLLVILRNAGNRISDQQISEQLSVPVDEVQEAIRYWNAAGIF” to “HMGFAANLSRLMEYHNISMYRLAKEVGVHQTTVKNWLEEESEPKIAALEKIVGLLGVSYDELLG”, the “soluble fraction (log2)” value falls from -2.76 to -4.58.

First: HMGFLTGNTQGEVNRKTKNQMVNIFLPTTPNPTSGFLLFVPKKDILRLTMTVEEGIKMIISAGMLTPS
Second: HMGFTDREREIIRNDLVATGRELFGTFGLKKTSIEDLTKAVGIAQGSFYTFFNSKEELYLEVMDREGEA
The “soluble fraction (log2)” value of the first is higher: -0.527 for the first, -1.14 for the second.

“HMGGALSPDFGWLAMIDPDEGRAITLYDIASGEAIAVLDTHEARVAALAWSPDGTRLASGDQNGLIVQWEI” and “HMGGEEPYGSGSLRLAAGAVVPSGYTIKGNEDSMLYHTTESPWYKQTIAEVWFNAESAAQRAGFTRWDAKD” are within 0.2 log units of each other in “soluble fraction (log2)” value: -0.31 for the first, -0.137 for the second.

Compared with “HMGGEIGSGKNGYVAFYKGKKVDVKADSMYGAQKTAAKYFNAKKEYDVNVVLAEVDGKQYVQS”, “HMGGGVERLTPRQREVLGYMAEGRSNSWIAGAIGFSEKAVVQHTSKIYDALGLAVDADDHRRVLAVLRYLT” is lower in “soluble fraction (log2)” value: 0.547 for the first, -1.44 for the second.

Going from “HMGGKWKLRILWHIHHGDTRFSTLKRGIPEISEKILAQQLRELEEHQLIKRRVVTVMPPHVVYEL” to “HMGGLAEIILNAIEIEGGFLPITDKSAPELIQSRLGMSKKAFKEAVGTLYKNRDIAIEPNGLRKI”, the “soluble fraction (log2)” value rises from -2.37 to -0.452.

First: HMGGLALAEREVVEWLSQRNLLPSPDVVARAAAHPDGLGWLERSLAVLEGPRLFLGLGDLVPEP
Second: HMGGLAVQLVHAMTDQIRSGRLKAGDKLPTEAAIMKDFGVSRTVVREAISRLQASGWVDTRHGIGTFVLHQ
The “soluble fraction (log2)” value of the first is higher: -0.688 for the first, -2.1 for the second.

Going from “HMGGLIEPLSARELEVLELMSLGKTNQEIARDLVVASGTIKAHAASIYRKLDAANRTEAVTHARELGIL” to “HMGGPEVLELEDVKVGSPGPDEIKVTNHAIGLNYIDTYHRSGLYPLKLPSGIGLEAAGKVEEIGSNV”, the “soluble fraction (log2)” value falls from 0.471 to 0.00701.

Going from “HMGGQEEALNRLVLRELLGTLEKKERDLIVRRYFYDQTQTKIAEALGISQVQVSRMEKRILKKMREGF” to “HMGGRSARVRRAVLDAVVELLGEGGVRAVTIAEVAKRSGVNASSIYRRWRSIDALILDAAQDL”, the “soluble fraction (log2)” value falls from -0.98 to -2.51.

“HMGGSDIYLGAFNIPQGSVRVTSGGQALTEGKDFTIDYNLGSVKIINQAILNSGIPVSVSYENNAG” and “HMGGSLADAKRFLADLLADGPVPAKGVRADADGAGHTWPTIRRAQKALGIEATKTGMKGGWVWALPR” are within 0.2 log units of each other in “soluble fraction (log2)” value: 0.0185 for the first, -0.165 for the second.

First: HMGGSVYTVQKGDTLWSIAKEQLGSPLRYAEIYDLNKDVIEEAARGRGKKDSSNGHWLVVGTSLQIPEAT
Second: HMGGTAGKINAIGVNFRTGPSTSYTSLGLLGKDTAVTVIGTSGKWYKVTIVSTGKTGYVYATYVNLTP
The “soluble fraction (log2)” value of the first is higher: 0.184 for the first, -2.25 for the second.

“HMGGVIEDDRGQWAHPGEVTKINSNNITMKGVDFPVLGISDTGDKKMMQPGKDYKFDGNSVTEYPMA” and “HMGGWEEGVYVVREGDTLSDIVHDAVKGTEIHPDFILNAIVRVNPSAFVRGNPSWMLAGKKIK” are within 0.2 log units of each other in “soluble fraction (log2)” value: -0.24 for the first, -0.0613 for the second.

First: HMGGYVTGTIDLTKFGYAFVITEESEDDVFVAARNLNTALHGDQVKVLLYARHKGKRPEGEVVEIISRSRA
Second: HMGHEEPITFDRLPQAAQTFLKTHFDTLTVAYIVADRKFMGVEYEVKYTDRTEVDFRSDGQWESV
The “soluble fraction (log2)” value of the first is lower: -2.35 for the first, 0.085 for the second.

Going from “HMGHKTLTVELQEKIENLPQTLDKYNLTLGNNKMSVDYTYSVKEKQTGITNLLQDLKEHKFDIVYLVGQDN” to “HMGHLSNENAGRLLDRVLNDKIHAIMLGHLSKENNMPELAHEAVRMEITMGESRYKADDFPIYVA”, the “soluble fraction (log2)” value falls from 0.343 to -0.0465.

First: HMGHTKLVVDIVEELKLEQGALLPILHAIQDELGYVPTKSVPFIADSLNLSRAEVHGVISFYHYFR
Second: HMGIAWGMLREQVAASDVSYRSEVLDILDRTPVWIYDAEGKIVDGRKKRLMDLQGGEPYRHMLEHFFPDLR
The “soluble fraction (log2)” value of the first is higher: 0.153 for the first, -2.43 for the second.

Compared with “HMGIDAIDNFVSKIIMKIEGLGESEVPTSTIGKFIMEGLQYLDTVAYVRYASVYKNFKEAKDFEQFVGSL”, “HMGIDRPLFTLAQFARQIGEQVKISLSLPQDGRRRLQGKVLSVGESGIVLDVDGREFTVAIGNVDKARL” is lower in “soluble fraction (log2)” value: -0.0349 for the first, -1.83 for the second.

Compared with “HMGIDSSVYVEARYELGHLYLKQKKYAAAYASFKEILDMYASTTPGVLPGAYNKLAEIGMKRIPKNKL”, “HMGIIQAQIPGLVSRLFVKKGDKVAVNQRLFILEAMKMENEIDSPIQGMVEKIHITTGSKVEKGDLIMEIV” is lower in “soluble fraction (log2)” value: -2.66 for the first, -2.9 for the second.

Compared with “HMGIIYGKNPVLEAISSGTTINKIYAQTSNKEIDSVIKEALKRKIIVVNTDKQKLDKMIDGKNSQGIIASI”, “HMGIKAADIVTNDIQFNTQAQFDKYKDLYPTLGWGNYDPNKTYTMQGFKNKLKPNELFTGTPNLKIEDT” is higher in “soluble fraction (log2)” value: 0.025 for the first, 0.486 for the second.

Going from “HMGIKDRIVYIMEKEKLSIPLFAKKIGIGPSTLLHIIRGKNAPSLQVVQAIHKAYPDIDLNWLI” to “HMGIKSSASLQEAAEKAQSAYYDIEHSGVATAVDIQRAWVAMVAAQIDAGEKLDSGTITLYERLKTST”, the “soluble fraction (log2)” value rises from -1.66 to 0.0117.

First: HMGIMNFDTWLKSLPGTPTPTIAAKKSGLAAPTLLRHVERGYSTADNVIAIAKAYGVSPIDALVDNGML
Second: HMGIMSEITHRVLRLLGLLESRSTWTGSDLAERLGVTQRTIRRDVIRLRELGYQVDSVQGLDGGYRMS
The “soluble fraction (log2)” value of the first is higher: -0.956 for the first, -2.65 for the second.

Compared with “HMGIPVSIGQLDFNQARGNLALQVRASDFAALEQLRQRLGQTGESVQLGSASRDGDAVSARVVIGGQ”, “HMGIQQNHMTLHARSVASSANVPAEHFDTLVEKLIESGDIKVWKAREILMNLSRQHEEILDES” is lower in “soluble fraction (log2)” value: 0.0963 for the first, -0.789 for the second.

Going from “HMGISGSDLEKMIRNILVNNTDVVETIKSGQDKKGKKQKFLQGLIMKEARGQTDPREAASLLAKLLE” to “HMGITMFGQNLKKLRTSKNLSQSKLSKILGISSSTIGMYEQGRRFPDQTILTKIADFFDVSTDYLLGR”, the “soluble fraction (log2)” value falls from -0.108 to -0.819.

Compared with “HMGIVAQLPTIRVNGKTLYYYDAQSGDNIYSIAEKLGVTVEDIRANNPGVADGVKPRMRLFFPTSLAK”, “HMGIVYGVIKENWDQDHPGMVKVEILQGESGKNVSDWIPVMSPYAGKEFGAYALPEIGTQAVVAFE” is higher in “soluble fraction (log2)” value: -0.377 for the first, 0.24 for the second.

“HMGIYDQAAAAYIEFVESKNRAPKWNELIDALYKENGKDWIDRSTLHGLLRRKEFQELLAQKRKEHLV” and “HMGIYFIIAAKNQENNIEEFIRTTLFRIVYGKEESINNITLVDLKSKDNTKNIMEEIARENENVKV” are within 0.2 log units of each other in “soluble fraction (log2)” value: -0.76 for the first, -0.641 for the second.

Compared with “HMGKAPREVQVGELLRVPALNAEGEVLRRDGESVELSIQGKKLRLPLAQLEAFSPRRFARRGEGKVRGRIE”, “HMGKDLLGYEVFAESGDLVGILKDVMWLPHSDVYVITKGGKEFLIPVIPEVVKGINHEQGVIVISPMEGLL” is lower in “soluble fraction (log2)” value: 0.591 for the first, -0.234 for the second.

First: HMGKDTLKLKKNAIPYDENGKKLTNLGYSYIKKTTVLNYYGTKIINGSTYYFLGDGVYIKAANVGTTSH
Second: HMGKEYERALQQVTKSEIDSDEKLQQQMDALVNSPRISDKEDAWALLLVKKLRNEGVEWDELPDVLSERVQ
The “soluble fraction (log2)” value of the first is lower: -2.56 for the first, 0.159 for the second.

Compared with “HMGKGGVAYLLESEFGIELPKDMQREFGPIANDIVDSLGREVSGAELKSMFWKEYIERETPFLLLLVTGQL”, “HMGKIFSELTPREIEVVRLIADGLSNQQIAEELFLSNGTVRNHISTILEKTGLEHRTQIAVMWLR” is lower in “soluble fraction (log2)” value: 0.404 for the first, -0.139 for the second.

First: HMGKKIVERRNTILNMVNKYGTLDFPQLRDAFPDVSDVTLRKDLQYLDSTKQAIRTHGGIKSI
Second: HMGKLQFREKLNGILELGKEKHRVLTMEDVEKYFEEDALSEEQMELVYDYLLSQKIAVTGYVKK
The “soluble fraction (log2)” value of the first is higher: -0.0604 for the first, -0.509 for the second.

Going from “HMGKPPNNRIHRAKRDYALNLVKEHYPDFGPTLAAEKLAEHHGFTVSRETLRKWMIEDGIWLSRKQRR” to “HMGKQIKEIVEEYYDSTSKNSPVGGSWKTSLDGVDLTSPNITIWTRTKIKYVDGSESIVTPQSL”, the “soluble fraction (log2)” value rises from -0.475 to -0.105.

Compared with “HMGKRPTIQMVAEMAGVSRGTVDRVLNGRSYVSAQVRQRVLAALQETGYISSREHHQQALQS”, “HMGKRRGLKVAEEVFADRGYNPDGTLVNRSLPGAFVKDPDEAIARVIKMVKTKKVTAVNGEEIDIAADSI” is higher in “soluble fraction (log2)” value: -0.691 for the first, -0.0957 for the second.

Going from “HMGKSDEIFIQKSALYEELGQPDRALEMIYSALKSDSLNIDVLHRLVTLLINQNKNEDAILYNQKIID” to “HMGKTEETLQMEKLVEALRRSGRMKYEDAYRIVYAAFPDAKDFEGMLSGAIRAGFIELQMGNDGAFLRAL”, the “soluble fraction (log2)” value falls from -0.203 to -0.859.

“HMGKVNGFEITVIEGKNVVGSITPRQAIAKNSDGVIQLRGEQSFSATDQVLINELAFYIKSNNLKA” and “HMGLAALLQSGPVAGTVLSHQPGGKVVIAFQGQAYPLNLKGRTLQPGQSVLARMAGEQISLEVI” are within 0.2 log units of each other in “soluble fraction (log2)” value: -1.31 for the first, -1.14 for the second.

With “HMGLDERNLKLFAASLLEQAGKKITESTMTYLLDKTGSDMENIQNEVEKIIGYTMNHTVVTTEDIDAV” the “soluble fraction (log2)” value was 0.0873.
